Marks after values point to notes of the source that are not given here. Where no end group is shown, it is not given here.
T1: HAb18G/CD147 on HHCC hepatocellular carcinoma cells (human, UniProt P35613 140-385, glycosylated (mode not specified))
T1 sequence: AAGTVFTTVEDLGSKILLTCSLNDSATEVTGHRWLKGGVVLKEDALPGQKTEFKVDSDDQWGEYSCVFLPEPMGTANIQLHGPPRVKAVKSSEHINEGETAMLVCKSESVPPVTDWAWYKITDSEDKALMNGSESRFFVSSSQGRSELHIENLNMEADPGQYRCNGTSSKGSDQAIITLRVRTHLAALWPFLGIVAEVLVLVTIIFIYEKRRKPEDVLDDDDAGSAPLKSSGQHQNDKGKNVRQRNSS

B1: HAb18G/CD147: hepatocellular carcinoma-associated antigen of 269 amino acids, purified from HHCC cells by HAb18 affinity chromatography (protein, listed as Homo sapiens)
chain: MAAALFVLLGFALLGTHGASGAAGTVFTTVEDLGSKILLTCSLNDSATEVTGHRWLKGGVVLKEDALPGQKTEFKVDSDDQWGEYSCVFLPEPMGTANIQLHGPPRVKAVKSSEHINEGETAMLVCKSESVPPVTDWAWYKITDSEDKALMNGSESRFFVSSSQGRSELHIENLNMEADPGQYRCNGTSSKGSDQAIITLRVRTHLAALWPFLGIVAEVLVLVTIIFIYEKRRKPEDVLDDDDAGSAPLKSSGQHQNDKGKNVRQRNSS

How the values were obtained:
HHCC cells = experiment: tumorigenesis of HHCC cells inoculated in mice; format: in vivo; conditions: i.v. 2.5 mg/kg; for inhibitory effect on tumorigenesis of hepatocellular carcinoma cells: 200 μl HHCC cells (1×10^6/ml)
Description: 2. in vivo studies: The mice were inoculated with 200 μl HHCC cells (1×10^6/ml) and were then treated with HAb18G/CD147 antagonistic peptides (i.v.) at the dose of 2.5 mg/kg weight. […] Moreover, the average survival time of mice in therapeutic group was two times as long as that of the control group. A high metastatic human hepatocellular carcinoma cell line MHCC97-H was transplanted into the liver of nude mice to investigate the anti-metastasis effects of APs. […] The inhibitory effects of HAb18G/CD147 antagonistic peptides on angiogenesis in chick embryo chorioallantoic membrane (CAM) as well as on angiogenesis induced by Matrigel plug were detected.

HHCCs = experiment: reconstituted basement membrane invasion assay with antagonistic peptides; format: cell-based, human; conditions: for inhibitory rate (%): invasion of HHCCs through reconstituted basement membrane, 20 hours, vs control; for inhibition of hepatocellular carcinoma cells invasion and metastasis (in words): reconstituted basement membrane invasion
Description: Matrigel (main component was type IV collagen, BD Company) was added onto the inner surface of Boyden Chambers (Millipore) to form the reconstituted basement membrane. Cells (HHCC cells and human fibroblasts) and antisense RNA were added and the chambers were put in the 24-well plates and co-cultured overnight. Cells infiltrated through the reconstituted basement membrane and appeared on the outer surfaces of the membrane were stained and counted under high-power microscope.
1. in vitro studies: reconstituted basement membrane invasion was employed to test the effects of the antagonistic peptides for HAb18G/CD147 on the invasive ability of HHCCs. Antagonistic peptides were co-cultured with HHCCs and fibroblasts on the reconstituted basement membrane for 20 hours. Cells infiltrated through the reconstituted basement membrane were counted under high-power microscope and the inhibitory rate of the antagonistic peptides was calculated.

[1] = molecular target: T1, HAb18G/CD147 on HHCC hepatocellular …; experiment: cell-based or functional assay
human fibroblasts = experiment: gelatin zymography of human fibroblasts stimulated by purified HAb18G/CD147; format: cell-based; conditions: MMP-9, MMP-2 and MT1-MMP
Description: The experiments were carried out as follows:
Purified HAb18G/CD147 was added to the cultured human fibroblasts and the supernatant of the culture was collected and then subjected to SDS-PAG electrophoresis in a separation gel containing 1 mg/ml gelatin. Different from the conventional SDS-PAGE, no DTT was added to the sample and furthermore, the sample was not boiled. After electrophoresis, the gel was washed twice (45 min/each time) at room temperature and washed twice (20 min/each time) with 0.1 mol/L NaCl, and then incubated for 24 hours in an incubation solution at 37° C. The gel was stained with 0.5% (w/v) Coomassie Blue and then destained. MMPs were detected as clear bands against a blue background.

Row | Molecule | inhibitory rate (%) (HHCCs) | inhibition of hepatocellular carcinoma cells invasion and metastasis (in words) (HHCCs) | infiltrative cells [1] | inhibitory rate (%) [1] | also measured
1 | MTHDPVISLPTT [AP-1, antagonistic 12-mer peptide for HAb18G/CD147] | 78.2^a % | significantly inhibited |  |  | inhibitory effect on tumorigenesis of hepatocellular carcinoma cells (HHCC cells): significant inhibitory effects
2 | MHKHPHGSQGPT [AP-8, antagonistic 12-mer peptide for HAb18G/CD147] | 68.32^a % | significantly inhibited |  |  | 
3 | ANIVPIHANHFQ [AP-7, antagonistic 12-mer peptide for HAb18G/CD147] | 56.44^a % | significantly inhibited |  |  | 
4 | GHWHNHRHQAPL [AP-3, antagonistic 12-mer peptide for HAb18G/CD147] |  | significantly inhibited |  |  | 
5 | YPFHHKHWHRPN [AP-6, antagonistic 12-mer peptide for HAb18G/CD147] | 62.38^a % | significantly inhibited |  |  | inhibitory effect on tumorigenesis of hepatocellular carcinoma cells (HHCC cells): significant inhibitory effects; tumor formation on the 11th day from inoculation (HHCC cells; HHCC cells, tumors formed in all control mice): no tumor formed
6 | YKLPGHHHHYRP [AP-9, antagonistic 12-mer peptide for HAb18G/CD147] | 81.19^a % | significantly inhibited |  |  | 
7 | KYPHQHLHMHDS [HAb18G/CD147 binding/antagonistic peptide (4)] |  |  | 12.2 cells | 39.6% | 
8 | LHRHSHGHSYKS [HAb18G/CD147 binding/antagonistic peptide (2)] |  |  | 28 cells | -38.6% | 
9 | MHKHPHGSQGPT [HAb18G/CD147 binding/antagonistic peptide (8)] |  |  | 6.4 cells | 68.3% | 
10 | YPFHHKHWHRPN [HAb18G/CD147 binding/antagonistic peptide (6)] |  |  | 7.6 cells | 62.4% | 
11 | IGWHYYLRTQHS [HAb18G/CD147 binding/antagonistic peptide (5)] |  |  | 23.2 cells | -14.8% | 
12 | ANIVPIHANHFQ [HAb18G/CD147 binding/antagonistic peptide (7)] |  |  | 8.8 cells | 56.4% | 
13 | YKLPGHHHHYRP [HAb18G/CD147 binding/antagonistic peptide (9)] |  |  | 3.8 cells | 81.2% | 
14 | MTHDPVISLPTT [HAb18G/CD147 binding/antagonistic peptide (1)] |  |  | 4.4 cells | 78.2% | 
15 | B1 |  |  |  |  | MMPs secreted by human fibroblasts after stimulation (human fibroblasts): secreted three different MMPs
16 | GHWHNHRHQAPL [HAb18G/CD147 binding/antagonistic peptide (3)] |  |  | 2 cells | 90.1% | 

— patent publication US20050026841A1, “Hab18g/cd147 its antagonist and application” (priority 2001, published 2005)
